Test results as given in paper PMC8166844, “The FlhA linker mediates flagellar protein export switching during flagellar assembly” (Communications Biology, 2021).

How the values were obtained:
[1] = target: T1, His-FlhAC(E351A/W354A/D356A) (Salmonella enterica, UniProt P40729 328-692, E351A | W354A | D356A); assay: BLI; GST-FlgN immobilised on an anti-GST sensor tip (BLItz), His-FlhAC or its variants in solution at various concentrations; kinetic buffer PBS pH 7.4, 0.1% BSA, 0.002% Tween-20; 25 °C; FlhAC-ED and FlhAC-EWD fitted with a two-state reaction model, FlhAC-ΔL with a heterogeneous reaction model; n = 3; details: both partners purified
T1 construct: also called FlhAC-EWD; His-FlhAC-EWD
T1 sequence: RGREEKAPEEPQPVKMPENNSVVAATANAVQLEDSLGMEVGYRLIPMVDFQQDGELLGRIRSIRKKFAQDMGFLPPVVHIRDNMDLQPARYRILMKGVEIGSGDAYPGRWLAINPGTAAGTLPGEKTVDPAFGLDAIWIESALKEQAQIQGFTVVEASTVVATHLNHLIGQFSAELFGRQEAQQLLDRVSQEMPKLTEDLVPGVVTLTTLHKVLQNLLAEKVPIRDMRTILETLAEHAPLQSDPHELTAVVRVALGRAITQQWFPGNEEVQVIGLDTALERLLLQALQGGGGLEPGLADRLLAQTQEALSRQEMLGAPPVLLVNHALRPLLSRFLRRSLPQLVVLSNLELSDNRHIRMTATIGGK

[2] = target: T2, His-FlhAC lacking FlhAL (residues 328–361) (Salmonella enterica, UniProt P40729 362-692); assay: as above; details: both partners purified
T2 construct: also called FlhAC-ΔL; His-FlhAC-ΔL
T2 sequence: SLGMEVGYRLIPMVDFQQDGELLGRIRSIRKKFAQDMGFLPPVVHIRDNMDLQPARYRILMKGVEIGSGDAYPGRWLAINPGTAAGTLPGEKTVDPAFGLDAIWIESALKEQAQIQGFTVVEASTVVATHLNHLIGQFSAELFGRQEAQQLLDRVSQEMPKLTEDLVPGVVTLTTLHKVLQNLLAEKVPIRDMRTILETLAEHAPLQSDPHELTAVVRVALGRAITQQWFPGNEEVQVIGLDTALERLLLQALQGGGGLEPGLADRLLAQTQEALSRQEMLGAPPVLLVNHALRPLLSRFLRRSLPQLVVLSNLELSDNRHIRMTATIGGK

[3] = target: T3, His-FlhAC (C-terminal cytoplasmic domain of FlhA, residues 328–692), wild type (Salmonella enterica, UniProt P40729 328-692); assay: as above; details: both partners purified
T3 construct: also called wild-type FlhAC; WT
T3 sequence: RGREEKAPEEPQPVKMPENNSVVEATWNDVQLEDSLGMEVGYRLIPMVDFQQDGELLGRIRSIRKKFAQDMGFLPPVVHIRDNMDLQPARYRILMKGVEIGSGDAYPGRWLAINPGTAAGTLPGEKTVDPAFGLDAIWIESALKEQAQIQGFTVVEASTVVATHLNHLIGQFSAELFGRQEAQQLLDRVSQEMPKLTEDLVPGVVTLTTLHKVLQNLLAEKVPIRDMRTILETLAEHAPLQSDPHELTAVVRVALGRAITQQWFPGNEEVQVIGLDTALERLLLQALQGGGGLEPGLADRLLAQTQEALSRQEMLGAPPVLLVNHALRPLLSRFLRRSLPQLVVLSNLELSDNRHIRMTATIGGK

[4] = target: GST-FliJ (Salmonella enterica), P0A1K1; assay: BLI; GST-FliJ immobilised on an anti-GST sensor tip (BLItz), His-FlhAC or its variants in solution at various concentrations; kinetic buffer PBS pH 7.4, 0.1% BSA, 0.002% Tween-20; 25 °C; wild type fitted with a two-state reaction model, FlhAC-EWD and FlhAC-ΔL with the Hill equation; n = 3; details: remark: other sources report otherwise
Chain of GST-FliJ (Salmonella enterica), P0A1K1 (P0A1K1 whole entry): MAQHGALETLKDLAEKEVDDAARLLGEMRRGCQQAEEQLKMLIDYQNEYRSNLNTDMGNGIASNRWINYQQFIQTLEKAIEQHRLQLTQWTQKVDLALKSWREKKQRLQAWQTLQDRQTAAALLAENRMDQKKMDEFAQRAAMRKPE

[5] = target: T4, GST-FlgN (Salmonella enterica), P0A1J7; assay: BLI; GST-FlgN immobilised on an anti-GST sensor tip (BLItz), His-FlhAC or its variants in solution at various concentrations; kinetic buffer PBS pH 7.4, 0.1% BSA, 0.002% Tween-20; 25 °C; FlhAC-ED and FlhAC-EWD fitted with a two-state reaction model, FlhAC-ΔL with a heterogeneous reaction model; n = 3; details: remark: other sources report otherwise
T4 chain: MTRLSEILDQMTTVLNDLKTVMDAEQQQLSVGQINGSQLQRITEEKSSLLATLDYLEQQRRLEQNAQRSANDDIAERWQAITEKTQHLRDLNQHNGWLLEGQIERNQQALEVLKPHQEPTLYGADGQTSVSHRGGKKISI

B1: GST-FlgN (natural protein)
chain: MTRLSEILDQMTTVLNDLKTVMDAEQQQLSVGQINGSQLQRITEEKSSLLATLDYLEQQRRLEQNAQRSANDDIAERWQAITEKTQHLRDLNQHNGWLLEGQIERNQQALEVLKPHQEPTLYGADGQTSVSHRGGKKISI
notes: also called pMMGN101
Binder B1 has a Kd [1] of 31.2 µM, a Kd [2] of 3.1 µM and a Kd [3] of 0.095 µM. For the same binder, the koff [3] was ~0.000781 s⁻¹ and the kon [3] was ~8230 M⁻¹ s⁻¹.

B2: His-FlhAC lacking FlhAL (residues 328–361), P40729 362-692 (domain or fragment)
chain: SLGMEVGYRLIPMVDFQQDGELLGRIRSIRKKFAQDMGFLPPVVHIRDNMDLQPARYRILMKGVEIGSGDAYPGRWLAINPGTAAGTLPGEKTVDPAFGLDAIWIESALKEQAQIQGFTVVEASTVVATHLNHLIGQFSAELFGRQEAQQLLDRVSQEMPKLTEDLVPGVVTLTTLHKVLQNLLAEKVPIRDMRTILETLAEHAPLQSDPHELTAVVRVALGRAITQQWFPGNEEVQVIGLDTALERLLLQALQGGGGLEPGLADRLLAQTQEALSRQEMLGAPPVLLVNHALRPLLSRFLRRSLPQLVVLSNLELSDNRHIRMTATIGGK
Work on B2 yielded a Kd [4] of 49 µM.

B3: His-FlhAC (C-terminal cytoplasmic domain of FlhA, residues 328–692), wild type, P40729 328-692 (domain or fragment)
chain: RGREEKAPEEPQPVKMPENNSVVEATWNDVQLEDSLGMEVGYRLIPMVDFQQDGELLGRIRSIRKKFAQDMGFLPPVVHIRDNMDLQPARYRILMKGVEIGSGDAYPGRWLAINPGTAAGTLPGEKTVDPAFGLDAIWIESALKEQAQIQGFTVVEASTVVATHLNHLIGQFSAELFGRQEAQQLLDRVSQEMPKLTEDLVPGVVTLTTLHKVLQNLLAEKVPIRDMRTILETLAEHAPLQSDPHELTAVVRVALGRAITQQWFPGNEEVQVIGLDTALERLLLQALQGGGGLEPGLADRLLAQTQEALSRQEMLGAPPVLLVNHALRPLLSRFLRRSLPQLVVLSNLELSDNRHIRMTATIGGK
B3 was tested, and the Kd [4] was 1.36 µM.

B4: His-FlhAC(E351A/D356A), P40729 328-692 (domain or fragment)
chain: RGREEKAPEEPQPVKMPENNSVVAATWNAVQLEDSLGMEVGYRLIPMVDFQQDGELLGRIRSIRKKFAQDMGFLPPVVHIRDNMDLQPARYRILMKGVEIGSGDAYPGRWLAINPGTAAGTLPGEKTVDPAFGLDAIWIESALKEQAQIQGFTVVEASTVVATHLNHLIGQFSAELFGRQEAQQLLDRVSQEMPKLTEDLVPGVVTLTTLHKVLQNLLAEKVPIRDMRTILETLAEHAPLQSDPHELTAVVRVALGRAITQQWFPGNEEVQVIGLDTALERLLLQALQGGGGLEPGLADRLLAQTQEALSRQEMLGAPPVLLVNHALRPLLSRFLRRSLPQLVVLSNLELSDNRHIRMTATIGGK
B4 was tested, and the Kd [5] was 37.8 µM.

B5: His-FlhAC(E351A/W354A/D356A), P40729 328-692 (domain or fragment)
chain: RGREEKAPEEPQPVKMPENNSVVAATANAVQLEDSLGMEVGYRLIPMVDFQQDGELLGRIRSIRKKFAQDMGFLPPVVHIRDNMDLQPARYRILMKGVEIGSGDAYPGRWLAINPGTAAGTLPGEKTVDPAFGLDAIWIESALKEQAQIQGFTVVEASTVVATHLNHLIGQFSAELFGRQEAQQLLDRVSQEMPKLTEDLVPGVVTLTTLHKVLQNLLAEKVPIRDMRTILETLAEHAPLQSDPHELTAVVRVALGRAITQQWFPGNEEVQVIGLDTALERLLLQALQGGGGLEPGLADRLLAQTQEALSRQEMLGAPPVLLVNHALRPLLSRFLRRSLPQLVVLSNLELSDNRHIRMTATIGGK
B5 was tested, and the Kd [4] was 60.7 µM.
